Source: patent US6878520 (MERCK, dated 2005)

Legend:
[1] = target: T1, human melanocortin-3 receptor (human, UniProt P41968 1-323); assay: inhibition of 125I-NDP-α-MSH binding to membranes of cells expressing human MC3R
T1 construct: whole, on cells; Assayed as membranes prepared from stably expressing cells; also called hMC3R; MC3R
Experimental: (§1) Binding assays were done in the same manner as described in Fong et al., 1997, Biochem. Biophys. Res. Comm. 237:629–631. Binding assays were carried out using membranes prepared from L cells or CHO cells stably expressing human MC3R, MC4R or MC5R. […] The above mixture in binding buffer (50 mM Tris, 2 mM CaCl_2, 1 mM MgCl_2, 5 mM KCl, pH 7.2) was incubated at room temperature for 2 hours, followed by filtration through GFC paper. The bound ligand was quantitated in a γ counter. IC$50$ values were calculated as previously described (Fong et al., 1996, Mol. Pharmacol. 50:1605–1611).

[2] = target: T2, human melanocortin-4 receptor (human, UniProt P32245 1-332); assay: inhibition of 125I-NDP-α-MSH binding to membranes of cells expressing human MC4R
T2 construct: whole, on cells; Assayed as membranes prepared from stably expressing cells; also called hMC4R; MC4R
T2 sequence (P32245 whole entry): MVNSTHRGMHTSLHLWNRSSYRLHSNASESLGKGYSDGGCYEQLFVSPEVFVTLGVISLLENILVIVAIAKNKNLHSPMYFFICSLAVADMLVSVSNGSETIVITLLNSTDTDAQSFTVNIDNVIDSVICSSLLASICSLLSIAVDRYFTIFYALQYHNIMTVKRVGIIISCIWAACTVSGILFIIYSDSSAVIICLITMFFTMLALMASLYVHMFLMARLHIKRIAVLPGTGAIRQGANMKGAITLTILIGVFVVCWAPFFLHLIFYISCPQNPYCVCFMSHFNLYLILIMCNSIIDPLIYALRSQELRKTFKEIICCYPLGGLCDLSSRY
Experimental: as §1

T1 sequence (P41968 whole entry): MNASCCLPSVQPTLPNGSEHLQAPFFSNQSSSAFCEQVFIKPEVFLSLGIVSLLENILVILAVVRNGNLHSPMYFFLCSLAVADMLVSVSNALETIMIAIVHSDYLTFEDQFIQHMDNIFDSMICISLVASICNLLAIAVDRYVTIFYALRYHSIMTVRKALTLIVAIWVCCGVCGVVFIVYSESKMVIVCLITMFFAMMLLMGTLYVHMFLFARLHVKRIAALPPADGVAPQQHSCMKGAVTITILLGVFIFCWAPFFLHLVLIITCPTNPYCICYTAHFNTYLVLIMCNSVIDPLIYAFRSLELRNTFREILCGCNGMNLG

Row | Binder | IC50 [1] [nM] | IC50 [2] [nM]
1 | full-length human ART protein (ligand, also called full length ART; full-length ART protein) AQMGLAPMEGIRRPDQALLPELPGLGLRAPLKKTNAEQAEEDLLQEAQALAEVLDLQDREPRSSRRCVRLHESCLGQQVPCCDPCATCYCRFFNAFCYCRKLGTAMNPCSRTLVPRGSGSELGTKLGPEQKLISEEDLNSAVDHHHHHH | 1 | 0.5
2 | c-ART-b (ligand, Secreted into the culture medium of transfected COS-7 cells and used as concentrated medium; also called ART polypeptide) AQMGLALQDREPRSSRRCVRLHESCLGQQVPCCDPCATCYCRFFNAFCYCRKLGTAMNPCSRTLVPRGSGSELGTKLGPEQKLISEEDLNSAVDHHHHHH | 1.9 | 1.4
